Assay results taken from patent publication US20120034693A1.

Assays:
[1] = molecular target: mutant A3G D128K, cmyc-tagged, expressed from pD3GFPD128K / D3GFPD128K (human) (UniProt Q9HC16); test: cell-based or functional assay
[2] = molecular target: wild type Apolipoprotein B mRNA-editing enzyme-catalytic polypeptide-like 3G (A3G), cmyc-tagged, expressed from pD3GFP / D3GFP (human) (UniProt Q9HC16); test: cell-based or functional assay

With “HIV-1 viral infectivity factor (Vif), expressed from the helper plasmid pcHelp” the infectivity of HIV-GFP virus produced from vector-carrying 293T cells in the presence of HIV-1 Vif, percent of control [1] was 1 % of control, the inhibition of HIV-GFP replication by the A3G-expressing plasmid in the presence of HIV-1 Vif (GFP flow cytometry of infected 293T cells) [1] was 90% and the infectivity of HIV-GFP virus produced from vector-carrying 293T cells in the presence of HIV-1 Vif, percent of control [2] was 89 % of control.
